Data published in publication doi:10.1101/2025.08.19.671101 (bioRxiv, 2025).

T1: 10E8-GT10.2 (synthetic construct; HIV-1 MPER helix …, N-linked glycan density at N74/75)
T1 construct: also called MPER-GT immunogen
T1 chain: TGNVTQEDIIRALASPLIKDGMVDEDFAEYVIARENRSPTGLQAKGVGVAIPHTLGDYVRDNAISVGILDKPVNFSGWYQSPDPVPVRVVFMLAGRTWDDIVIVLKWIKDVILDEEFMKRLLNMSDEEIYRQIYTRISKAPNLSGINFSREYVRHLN

T2: 10E8-GT12 (synthetic construct; HIV-1 MPER helix …, N-linked glycan density at N74/75)
T2 construct: also called MPER-GT immunogen
T2 chain: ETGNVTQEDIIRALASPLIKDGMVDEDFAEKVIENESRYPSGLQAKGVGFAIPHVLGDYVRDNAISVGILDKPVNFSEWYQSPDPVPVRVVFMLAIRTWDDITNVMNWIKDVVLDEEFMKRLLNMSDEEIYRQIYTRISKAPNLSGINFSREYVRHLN

B1: NHP-10E8_MPER-GT10v55_W3-02 (Fab, V domains shown)
VH: EVQLVESGGGLVQPGGSLKLSCAASGFTFSDHYMDWVRQAPGKGLEWVSSVSSGSGSATLYPDSVKGRFTISRDNAKNTVYLQMNSLRAEDTAVYYCARRGLYYDFWSGYSDFYYGLDSWGQGVVVTVSS
VL: DIVMTQTPLSLPITPGEPASISCRSSQSLLQSNGNTYLHWYLQKPGQSPQLLIYGGSNRASGVPDRFSGSGSGTDFTLKISKVEAEDVGVYYCVQAIAFPFTFGPGTKLDIK
notes: source: FreeStyle 293F cells, transfected, purified
B2: SA684_Exp1_Scaf_MPER-GT12v56_W6-10 (Fab, V domains shown)
VH: QVTLKESGPGILQPSQTLSLTCSFSGFSLSTFGMGVGWIRQPSGKGLEWLAHIWWDDDKFYNPALKSRLTISKDTSKNQVFLKIANVDTADTATYYCARIGEDYFLDVWGKGTTVTVSS
VL: DIQMTQSPASLSASVGETVTITCRASGNIHNYLAWYQQKQGKSPQLLVYNAKTLADGVPSRFSGSGSGTQYSLKINSLQPEDFGSYYCQHFWSAPYTFGGGTNLEIK
notes: also called off-target mouse Fab W6-10; source: FreeStyle 293F cells, transfected, purified
B3: SA2102_10E8-like_2911_Fab (Fab, V domains shown)
VH: QVQLKQSGPGLVQPSQSLSITCTVSGFSLTSYGVHWVRQSPGKGLEWLGVIWSGGSTDYNAAFISRLSISKDNSKSQVFFKMNSLQADDTAIYYCARAPPYYDFWSGYSYYYYYMDVWGKGTTVTV
VL: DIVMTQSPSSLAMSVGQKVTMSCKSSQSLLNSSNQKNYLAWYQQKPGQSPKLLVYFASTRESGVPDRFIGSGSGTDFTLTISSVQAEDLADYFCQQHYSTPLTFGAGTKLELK
notes: also called SA2911; source: FreeStyle 293F cells, transfected, purified
B4: NHP-10E8_MPER-GT10v55_W3-05 (Fab, V domains shown)
VH: EVQLVESGGGLVQPGGSLRLSCAASGFTFSNYWMSWVRQAPGKGLEWVGFIKNKADGGTAAYAESVKGRFTISRDDSKNTLYLQMNSLKTEDTAVYYCARDLGRYNFWSGFYSQNRFDVWGPGVLVTVSS
VL: SYEVTQPPSVSVSPGQMARITCGGDNLGSKYVHWYQQKPAQAPVLVIYDDSERPSGIPERFSGSKSGNTATLTISGVEAGDEADYYCQVWDSSSDHPLFGGGTRLTVL
notes: as for B1
B5: SA684_Exp1_Scaf_MPER-GT10v55_W6-03 (Fab, V domains shown)
VH: DVQLQESGPGLVKPSQSLSLTCSVTGYSITSGYYWNWIRQFPGNKLEWMGYISYDGSNNYNPSLKNRISITRDTSQNQFFLKLNSVTTEDTASYYCAREGPYYDFWSGYYAYYMDVWGKGTTVTVSS
VL: DIVMSQSPSSLAVSVGEKVTMSCKSSQSLLYSSNQKNYLAWYQQKPGQSPKLLIYWASTRKSGVPDRFTGSGSGTDFTLTISSVKAEDLAVYYCQQYFGYPLTFGAGTKLELK
notes: as for B1

Tests used:
10E8-GT10.2 = target: T1, 10E8-GT10.2; assay: SPR; details: both partners purified
10E8-GT12 = target: T2, 10E8-GT12; assay: SPR; details: both partners purified

| Binder | Kd (10E8-GT10.2) [nM] | Kd (10E8-GT12) [nM] |
| --- | --- | --- |
| B1 | 7.5 | 3400 |
| B2 | 3 | 1.8 |
| B3 | 787 | 534 |
| B4 | 19 | 490 |
| B5 | 9 | 8.5 |
